Reference: publication doi:10.1101/2023.03.10.531533 (bioRxiv, 2023)

Legend:
[1] = molecular target: SARS-CoV-2 Wuhan spike protein on HEK293T cells (SARS-CoV-2 Wuhan, UniProt P0DTC2); test: flow cytometry on cells
[2] = molecular target: recombinant prefusion stabilized SARS-CoV-2 spike protein (S-2P) (SARS-CoV-2 Wuhan, UniProt P0DTC2, stabilised); test: HDX-MS
[3] = molecular target: recombinant SARS-CoV-2 S-6P spike protein (SARS-CoV-2 Wuhan, UniProt P0DTC2, stabilised); test: ELISA

Measured: binding result

B1: VHH R3DC23 (VHH)
VHH: QVQLQESGGGLVQAGDSLTLSCAVSGRIFSTYTMGWFRQAPGKEREFVAAVRWGAGTIYYADSMKGRFTISRDSAKNTVDLQMNSTKPEDTAVYYCGAAYVSKANYGSLWYQDSRRYDYWGQGTQVTVSS
binds: all assays above
